Source: patent US20110144187, “APTAMER INHIBITION OF THROMBUS FORMATION” (published 2011)
Residue numbers refer to the chain shown, from its start.

Key:
[1] = system: fibrinogen (Homo sapiens), P02671-2+P02675+P02679-2; test: filter; details: quinoline-8-boronic acid-modified T (B-TTP) replacing T outside the primer region; average Kd of DNA pool after round 13
fibrinogen [2] = molecular target: T1, fibrinogen (Homo sapiens, UniProt P02671-2;P02675;P02679-2 P02671-2:20-629,P02675:31-491,P02679-2:27-437); test: filter; equilibrium filtration; Tables 3 and 4 give 102 ± 40; details: tags: Sigma-Aldrich, from human plasma, about 60% protein; chain copies: 2; label: 32P (alpha-32P-dATP)
T1 sequence (P02671 20-629, chain 1 of 3): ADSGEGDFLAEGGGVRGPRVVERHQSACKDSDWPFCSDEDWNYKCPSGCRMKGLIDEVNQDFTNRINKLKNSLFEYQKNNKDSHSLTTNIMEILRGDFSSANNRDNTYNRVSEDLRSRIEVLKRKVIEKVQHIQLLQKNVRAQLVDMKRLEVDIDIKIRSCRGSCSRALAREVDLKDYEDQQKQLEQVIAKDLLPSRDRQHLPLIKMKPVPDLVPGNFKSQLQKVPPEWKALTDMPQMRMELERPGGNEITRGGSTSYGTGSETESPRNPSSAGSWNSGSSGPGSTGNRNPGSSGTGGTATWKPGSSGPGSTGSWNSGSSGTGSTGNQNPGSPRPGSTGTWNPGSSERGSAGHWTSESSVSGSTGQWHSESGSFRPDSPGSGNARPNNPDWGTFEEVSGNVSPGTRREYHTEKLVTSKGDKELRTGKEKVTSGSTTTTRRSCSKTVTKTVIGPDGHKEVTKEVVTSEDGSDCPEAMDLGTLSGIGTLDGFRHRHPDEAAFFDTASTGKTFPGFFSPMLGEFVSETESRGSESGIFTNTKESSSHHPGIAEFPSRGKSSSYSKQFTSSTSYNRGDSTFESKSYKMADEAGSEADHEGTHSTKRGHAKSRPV
T1 sequence (P02675 31-491, chain 2 of 3): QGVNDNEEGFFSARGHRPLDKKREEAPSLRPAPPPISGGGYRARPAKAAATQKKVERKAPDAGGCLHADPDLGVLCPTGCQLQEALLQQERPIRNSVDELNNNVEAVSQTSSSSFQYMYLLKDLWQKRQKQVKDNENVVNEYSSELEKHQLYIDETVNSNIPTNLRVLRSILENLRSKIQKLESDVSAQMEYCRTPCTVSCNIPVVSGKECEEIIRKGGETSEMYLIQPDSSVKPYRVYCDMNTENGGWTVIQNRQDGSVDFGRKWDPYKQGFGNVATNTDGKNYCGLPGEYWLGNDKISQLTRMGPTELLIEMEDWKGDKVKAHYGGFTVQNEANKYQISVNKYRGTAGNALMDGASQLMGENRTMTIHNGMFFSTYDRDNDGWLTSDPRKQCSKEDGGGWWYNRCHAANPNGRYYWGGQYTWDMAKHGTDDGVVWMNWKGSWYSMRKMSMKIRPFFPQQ
T1 sequence (P02679 other isoform, or with tags, fused parts or gaps, chain 3 of 3): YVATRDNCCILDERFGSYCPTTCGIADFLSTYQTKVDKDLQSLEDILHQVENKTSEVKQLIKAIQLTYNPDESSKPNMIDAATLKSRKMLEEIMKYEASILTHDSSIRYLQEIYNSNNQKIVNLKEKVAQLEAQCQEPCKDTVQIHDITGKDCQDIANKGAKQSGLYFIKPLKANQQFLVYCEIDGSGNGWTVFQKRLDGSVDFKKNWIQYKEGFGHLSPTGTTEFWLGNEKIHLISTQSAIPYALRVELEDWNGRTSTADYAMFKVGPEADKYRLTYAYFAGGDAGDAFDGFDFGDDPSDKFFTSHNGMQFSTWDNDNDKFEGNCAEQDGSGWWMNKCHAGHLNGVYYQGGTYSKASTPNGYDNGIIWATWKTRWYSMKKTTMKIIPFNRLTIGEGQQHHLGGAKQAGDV
Protocol: (§1) Dissociation constants in solution were determined by equilibrium filtration (Jenison et al., Science 1994, 263, 1425-1429; Huang & Szostak, RNA 2003, 9: 1456-1463;). Using this technique, the bound and unbound ligand (DNA) partition between the two portions were separated by a membrane. DNA was first amplified into dsDNA using two primers by PCR (25 cycles of 0.5 min at 94° C., 0.5 min at 46° C., and 0.5 min at 72° C., followed by 5 min at 72° C.). The dsDNA product was then split into ssDNA using one primer and α-³²P-dATP by one-round PCR. The ³²P-labeled ssDNA ligand (10 nM) and the protein (1-1000 nM) in the 100 μL of binding buffer were incubated for 15 min at 25° C. prior to loading into the Microcon YM-100 unit (Millipore, Billerica, Mass.). The solution was centrifuged at 13,000 g for 10 sec to saturate the membrane, and the filtrate was transferred back to the unit. […] Aliquots (10 μL) were taken from both the remaining solution and the filtrate, and radioactivity in each aliquot was determined by Beckman LS 6500 liquid scintillation counter. […]
(§2) To determine the extent to which the aptamers 85A (SEQ ID NO.: 13), 85B (SEQ ID NO.: 14), and 85C (SEQ ID NO.: 15) bind specifically to fibrinogen, their dissociation constants (Kd) were measured using the equilibrium filtration method with radiolabeled α-³²P-dATP. […]

[3] = molecular target: T2, periodate-treated fibrinogen (Homo sapiens, UniProt P02671-2;P02675;P02679-2 P02671-2:20-629,P02675:31-491,P02679-2:27-437); test: filter; equilibrium filtration; value as printed; details: tags: Sigma-Aldrich fibrinogen, glycans oxidised with sodium periodate; chain copies: 2; label: 32P (alpha-32P-dATP)
T2 sequence (P02671 20-629, chain 1 of 3): as the sequence (P02671 20-629, chain 1 of 3) above
T2 sequence (P02675 31-491, chain 2 of 3): as the sequence (P02675 31-491, chain 2 of 3) above
T2 sequence (P02679 other isoform, or with tags, fused parts or gaps, chain 3 of 3): as the sequence (P02679 other isoform, or with tags, fused parts or gaps, chain 3 of 3) above
Protocol: as §1, §2

[4] = molecular target: T3, deglycosylated fibrinogen (TFMS-treated) (Homo sapiens, UniProt P02671-2;P02675;P02679-2 P02671-2:20-629,P02675:31-491,P02679-2:27-437); test: filter; equilibrium filtration; value as printed; details: tags: Sigma-Aldrich fibrinogen, chemically deglycosylated with trifluoromethanesulfonic acid; chain copies: 2; label: 32P (alpha-32P-dATP)
T3 sequence (P02671 20-629, chain 1 of 3): as the sequence (P02671 20-629, chain 1 of 3) above
T3 sequence (P02675 31-491, chain 2 of 3): as the sequence (P02675 31-491, chain 2 of 3) above
T3 sequence (P02679 other isoform, or with tags, fused parts or gaps, chain 3 of 3): as the sequence (P02679 other isoform, or with tags, fused parts or gaps, chain 3 of 3) above
Protocol: as §1, §2

fibrinogen [5] = molecular target: T1, fibrinogen; test: filter; equilibrium filtration; peroxide-treated aptamer; details: tags: Sigma-Aldrich, from human plasma, about 60% protein; chain copies: 2; label: 32P (alpha-32P-dATP)
fibrinogen [6] = molecular target: T1, fibrinogen; test: filter; equilibrium filtration; details: tags: Sigma-Aldrich, from human plasma, about 60% protein; chain copies: 2; label: 32P (alpha-32P-dATP)
Protocol: (§3) Dissociation constants in solution were determined by equilibrium filtration (Jenison et al., Science 1994, 263, 1425-1429; Huang & Szostak, RNA 2003, 9: 1456-1463;). Using this technique, the bound and unbound ligand (DNA) partition between the two portions were separated by a membrane. DNA was first amplified into dsDNA using two primers by PCR (25 cycles of 0.5 min at 94° C., 0.5 min at 46° C., and 0.5 min at 72° C., followed by 5 min at 72° C.). The dsDNA product was then split into ssDNA using one primer and α-³²P-dATP by one-round PCR. The ³²P-labeled ssDNA ligand (10 nM) and the protein (1-1000 nM) in the 100 μL of binding buffer were incubated for 15 min at 25° C. prior to loading into the Microcon YM-100 unit (Millipore, Billerica, Mass.). The solution was centrifuged at 13,000 g for 10 sec to saturate the membrane, and the filtrate was transferred back to the unit. The solution was centrifuged for another 20 sec, and the filtrate (about 10 μL) was collected. Aliquots (10 μL) were taken from both the remaining solution and the filtrate, and radioactivity in each aliquot was determined by Beckman LS 6500 liquid scintillation counter. All binding assays were duplicated. The equilibrium dissociation constants (Kd) of the ligand-protein interaction were obtained by fitting the dependence of bound fractions of specific binding on the concentration of the […] to the equation Y=B max X/(Kd+X), using the SigmaPlot program.
(§4) To determine the extent to which the aptamers 85A (SEQ ID NO.: 13), 85B (SEQ ID NO.: 14), and 85C (SEQ ID NO.: 15) bind specifically to fibrinogen, their dissociation constants (Kd) were measured using the equilibrium filtration method with radiolabeled α-³²P-dATP. The target substrate to which the aptamer was binding was fibrinogen (FIG. 12A), deglycosylated fibrinogen (FIG. 12B) and periodated fibrinogen (FIG. 12C).

[7] = molecular target: T2, periodate-treated fibrinogen; test: filter; equilibrium filtration; details: tags: Sigma-Aldrich fibrinogen, glycans oxidised with sodium periodate, chain copies: 2
Protocol: as §3, §4

[8] = molecular target: T3, deglycosylated fibrinogen (TFMS-treated); test: filter; equilibrium filtration; details: tags: Sigma-Aldrich fibrinogen, chemically deglycosylated with trifluoromethanesulfonic acid, chain copies: 2
Protocol: as §3, §4

fibrinogen [9] = molecular target: T1, fibrinogen; test: filter; equilibrium filtration; Table 1 prints a different (93, possibly truncated) value; details: tags: Sigma-Aldrich, from human plasma, about 60% protein; chain copies: 2; label: 32P (alpha-32P-dATP)
Protocol: as §1, §2

fibrinogen [10] = molecular target: T1, fibrinogen; test: SPR; biotin-aptamer on streptavidin chip; details: tags: Sigma-Aldrich, from human plasma, about 60% protein, chain copies: 2
Protocol: 0.2 M EDC and 0.05 M NHS were mixed in water. After degassing, 500 μL of this EDC-NHS solution was infused into both channels on the chip over a period of about 10 min (twice). Then a 1 mg/mL streptavidin stock solution was diluted 10-fold with 20 mM sodium acetate buffer at pH 5.2. The streptavidin solution (500 μL) was infused into both the detection and control channels over about 10 min period. […] 1M ethanolamine HCl solution (500 μL) (pH 8.5) was infused in over a period of 3 min to cap un-reacted (and activated) carboxyl sites. Then biotin-labeled aptamer (B-TTP or d-TTP) solution (500 μL, in PBS/T) was infused into the detection channel only over a period of about 10 min (twice). After aptamer immobilization, different fibrinogen concentrations were used in binding studies. In each run, fibrinogen solution was infused in at a flow rate of 0.05 mL/min for 6 min. After each injection, 1M ethanolamine HCl (pH 8.5) solution was infused in as the regeneration solution. All experiments were duplicated.
The KD values were obtained for aptamer 85B (SEQ ID NO.: 14) and its mutational analogs by using a surface plasmon resonance (SPR) instrument. SPR is a method to detect the index of the refraction of surface bound layers, as described by Karlsson et al., (2000) J. Anal. Biochem. 278: 1-13, and Shimomura et al., (2001) Anal. Chim. Acta. 434: 223-230 both of which are incorporated herein by reference in their entireties). This method has been used to determine the kinetic on and off rates for the interactions between biomolecules and binding receptors. In the aptamer-fibrinogen binding studies, streptavidin was immobilized to chips coated with a SAM surface that has terminal carboxyl functional groups. Biotin-labeled DNA was subsequently immobilized on the chip through biotin-streptavidin interactions. Fibrinogen solutions of various concentrations were then used for binding constant determination using kinetic data, as described by Lin et al., (2007). […] Opin. Biotechnol. 8: 498-502; Myszka, D. G. (2000) Methods Enzymol. 323: 325-340; and Myszka & Rich (2000) Pharm. Sci. Technology Today 3: 310-317. Table 6 lists the KD values of 85B and its mutations.

fibrinogen [11] = molecular target: T1, fibrinogen; test: filter; equilibrium filtration, same buffer; details: tags: Sigma-Aldrich, from human plasma, about 60% protein; chain copies: 2; label: 32P (filtration) or 5'-biotin (SPR)
Protocol: as §1, §2

[12] = label: 32P (filtration) or 5'-biotin (SPR)

Sequence of fibrinogen (Homo sapiens), P02671-2+P02675+P02679-2 (P02671 20-629, chain 1 of 3): as the sequence (P02671 20-629, chain 1 of 3) above
Sequence of fibrinogen (Homo sapiens), P02671-2+P02675+P02679-2 (P02675 31-491, chain 2 of 3): as the sequence (P02675 31-491, chain 2 of 3) above
Sequence of fibrinogen (Homo sapiens), P02671-2+P02675+P02679-2 (P02679 other isoform, or with tags, fused parts or gaps, chain 3 of 3): as the sequence (P02679 other isoform, or with tags, fused parts or gaps, chain 3 of 3) above

CCTTCGTTGTCTGCCTTCGTNNNNNNNNNNNNNNNNNNNNNNNNNNNNNNNNNNNNNNNNNNNNNNNNNNACCCTTCAGAATTCGCACCA [round 13 SELEX pool B-TTP]
Kd [1]: 5000 nM

B1: 85A TTP (ssDNA)
DNA: CCTTCGTTGTCTGCCTTCGTAGCGGATCGAATTACGCGTTAACGGCAACCGATAACGGGACCGATTGCACACCCTTCAGAATTCGCACCA
modifications: none (natural T)
Kd (fibrinogen [2]): 102 nM | Kd [3]: 67.4 nM | Kd [4]: 60.2 nM

B2: 85A B-TTP, H2O2-treated (ssDNA)
DNA: B1 DNA
modifications: B-TTP-derived T with boronic acid removed by peroxide oxidation
Kd (fibrinogen [5]): 173 nM

B3: 85A M-TTP (ssDNA)
DNA: B1 DNA
modifications: 5-alkynyl-amide T without boronic acid (M-TTP) replacing T outside the primer region
Kd (fibrinogen [6]): 138 nM

B4: 85C TTP (ssDNA)
DNA: CCTTCGTTGTCTGCCTTCGTAGTCGACTCTGACGCATGGACGTATCCTGTGCGTATGCATTATGAAGCACACCCTTCAGAATTCGCACCA
modifications: none (natural T)
Kd ([7]; label: 32P (alpha-32P-dATP)): 321 nM | Kd ([8]; label: 32P (alpha-32P-dATP)): 256 nM | Kd (fibrinogen [9]): 122 nM

B5: 85B-2 B-TTP (ssDNA)
DNA: CCTTCGTTGTCTGCCTTCGTAGGACCGCAGACATCGACGCAGGGAAAATCCGCAAGTCCAGCCAAATGCCACCCTTCAGAATTCGCACCA
modifications: quinoline-8-boronic acid-modified T (B-TTP) replacing T outside the primer region
Kd (fibrinogen [10]; label: 5'-biotin): 63.7 nM

B6: 85B-5 dTTP (ssDNA)
DNA: B5 DNA with A48T, T67A
modifications: none (natural T)
Kd (fibrinogen [10]; label: 5'-biotin): 1080 nM

B7: 85B TTP (ssDNA)
DNA: B5 DNA with A48T
modifications: none (natural T)
Kd (fibrinogen [10]; [12]): 127 nM | Kd [7, 12]: 130 nM | Kd [8, 12]: 140 nM | Kd (fibrinogen [11]): 63.8 nM

B8: 85B-3 dTTP (ssDNA)
DNA: B5 DNA with T34A, A48T, T49A
modifications: none (natural T)
Kd (fibrinogen [10]; label: 5'-biotin): 233 nM

B9: 85B-2 dTTP (ssDNA)
DNA: B5 DNA
modifications: none (natural T)
Kd (fibrinogen [10]; label: 5'-biotin): 127 nM

B10: 85B-4 dTTP (ssDNA)
DNA: B5 DNA with A48T, T57A, T67A
modifications: none (natural T)
Kd (fibrinogen [10]; label: 5'-biotin): 238 nM

B11: 85B-5 B-TTP (ssDNA)
DNA: B5 DNA with A48T, T67A
modifications: quinoline-8-boronic acid-modified T (B-TTP) replacing T outside the primer region
Kd (fibrinogen [10]; label: 5'-biotin): 329 nM

B12: 85B-1 B-TTP (ssDNA)
DNA: B5 DNA with T34A, A48T
modifications: quinoline-8-boronic acid-modified T (B-TTP) replacing T outside the primer region
Kd (fibrinogen [10]; label: 5'-biotin): 205 nM

B13: 85B-1 dTTP (ssDNA)
DNA: B5 DNA with T34A, A48T
modifications: none (natural T)
Kd (fibrinogen [10]; label: 5'-biotin): 507 nM

B14: 85B-4 B-TTP (ssDNA)
DNA: B5 DNA with A48T, T57A, T67A
modifications: quinoline-8-boronic acid-modified T (B-TTP) replacing T outside the primer region
Kd (fibrinogen [10]; label: 5'-biotin): 11.2 nM

B15: 85B-3 B-TTP (ssDNA)
DNA: B5 DNA with T34A, A48T, T49A
modifications: quinoline-8-boronic acid-modified T (B-TTP) replacing T outside the primer region
Kd (fibrinogen [10]; label: 5'-biotin): 17.6 nM
